{
  "source": "paper PMC5465077",
  "biological_target": "Her2 on SKBR3 cells (human (endogenous in SKBR3)) (UniProt P04626)",
  "assay": "flow cytometry on cells; 200,000 SKBR3 cells per sample incubated on ice for 60 min with serial dilutions of antibody or ADC in FACS buffer (DPBS, 1% BSA); detected with Alexa 647 goat anti-human IgG; mean fluorescence intensities fitted with a one-site specific binding equation",
  "data": [
    {"substance": "Trastuzumab^CF MMAF (AB4285) LC-S7 (antibody)", "values": [
      {"measurement": "Kd", "value": 7.6, "unit": "nM"}
    ]}
  ]
}
